Data taken from patent publication US20220220215A1 (CRESCENDO BIOLOGICS, published 2022).

B1: TPP-1014: CD137A-6GS-PDA-6GS-HSA-His (bispecific antibody)
chain: EVQLVESGGGLVQPGGSLRLSCAASGFTLSNYWMNWVRQAPGKGLEWVANINQDGSERYYVDSVKGRFTISRDNAKNSLYLQMNSLRAEDTAVYYCARGGEGYGVDHYGLDVSGQGTTVTVSSGGGGSGGGGSGGGGSGGGGSGGGGSGGGGSEVQLVESGGGLVQPGRSLRLSCAASGFTFDDYALHWVRQAPGKDLEWVSGISWNGGSYGYADSVKGRFTISRDNAKNSLYLQMNSLRAEDTALYYCVREKGPGLTGSTADYYGLDAWGQGTMVTVSSGGGGSGGGGSGGGGSGGGGSGGGGSGGGGSEVQLVESGGGLVQPGRSLRLSCAASGFTFHHYAMHWVRQAPGKGLEWVSGISWNGNKITYADSVKGRFTISRDNAKNSLYLQMNSLRAEDTALYYCVRDSSLFIVGAPTFEHWGRGTLVTVSSAAAHHHHHH
B2: TPP-1015: CD137A-6GS-PDA2-6GS-HSA3-His (bispecific antibody)
chain: EVQLVESGGGLVQPGGSLRLSCAASGFTLSNYWMNWVRQAPGKGLEWVANINQDGSERYYVDSVKGRFTISRDNAKNSLYLQMNSLRAEDTAVYYCARGGEGYGVDHYGLDVSGQGTTVTVSSGGGGSGGGGSGGGGSGGGGSGGGGSGGGGSEVQLVESGGGVVRPGGSLRLSCAASGFTFDDYAMSWVRQAPGKGLEWVSGITWNAGSTGYADSVKGRFTISRDNAKNSLYLQMNSLRAEDTALYYCVRDKYSYAWSYDDFDIWGQGTMVTVSSGGGGSGGGGSGGGGSGGGGSGGGGSGGGGSEVQLLESGGGLVKPGGSLRLSCAASGFTVSSYTMNWVRQAPGKGLEWVSSISSSGRYIYYADSVKGRFTISRDNAKNSLYLQMNSLRAEDTAVYYCARDPRMVGNPHEFDIWGQGTMVTVSSAAAHHHHHH
B3: TPP-1016: CD137A-6GS-PDA2-6GS-HSA1-His (bispecific antibody)
chain: EVQLVESGGGLVQPGGSLRLSCAASGFTLSNYWMNWVRQAPGKGLEWVANINQDGSERYYVDSVKGRFTISRDNAKNSLYLQMNSLRAEDTAVYYCARGGEGYGVDHYGLDVSGQGTTVTVSSGGGGSGGGGSGGGGSGGGGSGGGGSGGGGSEVQLVESGGGVVRPGGSLRLSCAASGFTFDDYAMSWVRQAPGKGLEWVSGITWNAGSTGYADSVKGRFTISRDNAKNSLYLQMNSLRAEDTALYYCVRDKYSYAWSYDDFDIWGQGTMVTVSSGGGGSGGGGSGGGGSGGGGSGGGGSGGGGSEVQLVESGGGLVQPGRSLRLSCAASGFTFHHYAMHWVRQAPGKGLEWVSGISWNGNKITYADSVKGRFTISRDNAKNSLYLQMNSLRAEDTALYYCVRDSSLFIVGAPTFEHWGRGTLVTVSSAAAHHHHHH
B4: TPP-1017: CD137A-6GS-PD138G7(G109D)-6GS-HSA2-His (bispecific antibody)
chain: EVQLVESGGGLVQPGGSLRLSCAASGFTLSNYWMNWVRQAPGKGLEWVANINQDGSERYYVDSVKGRFTISRDNAKNSLYLQMNSLRAEDTAVYYCARGGEGYGVDHYGLDVSGQGTTVTVSSGGGGSGGGGSGGGGSGGGGSGGGGSGGGGSEVQLVESGGGVVRPGGSLRLSCAASGFTFDDYAMSWVRQAPGKGLEWVSGITWNGGSTGYADSVKDRFTISRDNAKNSLYLQMNSLRAEDTALYYCVRDKYSYAWSYDDFDIWGQGTMVTVSSGGGGSGGGGSGGGGSGGGGSGGGGSGGGGSEVQLVESGGGLVKPGGSLRLSCAASGFTFSNYNMNWVRQAPGKGLEWVSSISSAGTHIYYADSVKGRFTISRDNAKNSLYLQMNSLRAEDTAVYYCARDPHSTGWYKDFDYWGQGTLVTVSSAAAHHHHHH
B5: TPP-1018: CD137A-6GS-PD138G7(G109D)-6GS-HSA3-His (bispecific antibody)
chain: EVQLVESGGGLVQPGGSLRLSCAASGFTLSNYWMNWVRQAPGKGLEWVANINQDGSERYYVDSVKGRFTISRDNAKNSLYLQMNSLRAEDTAVYYCARGGEGYGVDHYGLDVSGQGTTVTVSSGGGGSGGGGSGGGGSGGGGSGGGGSGGGGSEVQLVESGGGVVRPGGSLRLSCAASGFTFDDYAMSWVRQAPGKGLEWVSGITWNGGSTGYADSVKDRFTISRDNAKNSLYLQMNSLRAEDTALYYCVRDKYSYAWSYDDFDIWGQGTMVTVSSGGGGSGGGGSGGGGSGGGGSGGGGSGGGGSEVQLLESGGGLVKPGGSLRLSCAASGFTVSSYTMNWVRQAPGKGLEWVSSISSSGRYIYYADSVKGRFTISRDNAKNSLYLQMNSLRAEDTAVYYCARDPRMVGNPHEFDIWGQGTMVTVSSAAAHHHHHH
B6: TPP-1023: CD137A-6GS-HSA3-6GS-PDA-His (bispecific antibody)
chain: EVQLVESGGGLVQPGGSLRLSCAASGFTLSNYWMNWVRQAPGKGLEWVANINQDGSERYYVDSVKGRFTISRDNAKNSLYLQMNSLRAEDTAVYYCARGGEGYGVDHYGLDVSGQGTTVTVSSGGGGSGGGGSGGGGSGGGGSGGGGSGGGGSEVQLLESGGGLVKPGGSLRLSCAASGFTVSSYTMNWVRQAPGKGLEWVSSISSSGRYIYYADSVKGRFTISRDNAKNSLYLQMNSLRAEDTAVYYCARDPRMVGNPHEFDIWGQGTMVTVSSGGGGSGGGGSGGGGSGGGGSGGGGSGGGGSEVQLVESGGGLVQPGRSLRLSCAASGFTFDDYALHWVRQAPGKDLEWVSGISWNGGSYGYADSVKGRFTISRDNAKNSLYLQMNSLRAEDTALYYCVREKGPGLTGSTADYYGLDAWGQGTMVTVSSAAAHHHHHH
B7: TPP-1025: CD137A-6GS-HSA3-2-6GS-PDA2-His (bispecific antibody)
chain: EVQLVESGGGLVQPGGSLRLSCAASGFTLSNYWMNWVRQAPGKGLEWVANINQDGSERYYVDSVKGRFTISRDNAKNSLYLQMNSLRAEDTAVYYCARGGEGYGVDHYGLDVSGQGTTVTVSSGGGGSGGGGSGGGGSGGGGSGGGGSGGGGSEVQLLESGGGLVKPGGSLRLSCAASGFTVSSYTMNWVRQAPGKGLEWVSSISSSGRYIYYADSVKGRFTISRDNAKNSLYLQMNSLRAEDTAVYYCARDPRMVGNPHEFDIWGQGTMVTVSSGGGGSGGGGSGGGGSGGGGSGGGGSGGGGSEVQLVESGGGVVRPGGSLRLSCAASGFTFDDYAMSWVRQAPGKGLEWVSGITWNAGSTGYADSVKGRFTISRDNAKNSLYLQMNSLRAEDTALYYCVRDKYSYAWSYDDFDIWGQGTMVTVSSAAAHHHHHH
B8: TPP-1052: PDA2-6GS-HSA3-6GS-CD137D-His (bispecific antibody)
chain: EVQLVESGGGVVRPGGSLRLSCAASGFTFDDYAMSWVRQAPGKGLEWVSGITWNAGSTGYADSVKGRFTISRDNAKNSLYLQMNSLRAEDTALYYCVRDKYSYAWSYDDFDIWGQGTMVTVSSGGGGSGGGGSGGGGSGGGGSGGGGSGGGGSEVQLLESGGGLVKPGGSLRLSCAASGFTVSSYTMNWVRQAPGKGLEWVSSISSSGRYIYYADSVKGRFTISRDNAKNSLYLQMNSLRAEDTAVYYCARDPRMVGNPHEFDIWGQGTMVTVSSGGGGSGGGGSGGGGSGGGGSGGGGSGGGGSEVQLVESGGGVVQPGGSLRLSCAASGFTFSNYGMHWVRQAPGKGLEWVAVISNDGNTKTYADSVKGRFTISRDNSKNTLYLQMNSLRAEDTAVYYCAQDETTTVTASYYFDYWGQGTLVTVSSAAAHHHHHH
B9: TPP-1291 PD138G7(G109D)-6GS-CD137A-6GS-HSA1943 (bispecific antibody)
chain: EVQLVESGGGVVRPGGSLRLSCAASGFTFDDYAMSWVRQAPGKGLEWVSGITWNGGSTGYADSVKDRFTISRDNAKNSLYLQMNSLRAEDTALYYCVRDKYSYAWSYDDFDIWGQGTMVTVSSGGGGSGGGGSGGGGSGGGGSGGGGSGGGGSEVQLVESGGGLVQPGGSLRLSCASGFTLSNYWMNWVRQAPGKGLEWVANINQDGSERYYVDSVKGRFTISRDNAKNSLYLQMNSLRAEDTAVYYCARGGEGYGVDHYGLDVSGQGTTVTVSSGGGGSGGGGSGGGGSGGGGSGGGGSGGGGSEVQLLESGGGLVKPGGSLRLSCAASGFTVSSYTMNWVRQAPGKGLEWVSSISSSGRYIYYADSVKGRFTISRDNAKNSLYLQMNSLRAEDTAVYYCARDPRMVGNPHEFDIWGQGTMVTVSS
B10: TPP-1294 PDBlocker1.92-6GS-CD137A-7-6GS-HSA3 (bispecific antibody)
chain: EVQLVESGGGLVKPGGSLRLSCAASGFTFSDESMTWMRQAPGKGLEWVSYISSGGGVKFYADSVKGRFTISRDNAKNSLYLQMNSLRAEDTAVYYCAREAPLRLGESPHDAFDISGQGTMVTVSSGGGGSGGGGSGGGGSGGGGSGGGGSGGGGSEVQLVESGGGLVQPGGSLRLSCAASGFTLSNYWMNWVRQAPGKGLEWVANINQDGSERYYVDSVKGRFTISRDNAKNSLYLQMNSLRAEDTAVYYCARGGEGYGVDHYGLDVSGQGTTVTVSSGGGGSGGGGSGGGGSGGGGSGGGGSGGGGSEVQLLESGGGLVKPGGSLRLSCAASGFTVSSYTMNWVRQAPGKGLEWVSSISSSGRYIYYADSVKGRFTISRDNAKNSLYLQMNSLRAEDTAVYYCARDPRMVGNPHEFDIWGQGTMVTVSS
B11: TPP-942: PDA-6GS-172E1-13-6GS-HSA2-2-His (bispecific antibody)
chain: EVQLVESGGGLVQPGRSLRLSCAASGFTFDDYALHWVRQAPGKDLEWVSGISWNGGSYGYADSVKGRFTISRDNAKNSLYLQMNSLRAEDTALYYCVREKGPGLTGSTADYYGLDAWGQGTMVTVSSGGGGSGGGGSGGGGSGGGGSGGGGSGGGGSEVQLVESGGGVVQPGGSLRLSCAASGFTFSNYGMHWVRQAPGKGLEWVAVISNDGNTKTYADSVKGRFTISRDNSKNTLYLQMNSLRAEDTAVYYCAQDETTTVTASYYFDYWGQGTLVTVSSGGGGSGGGGSGGGGSGGGGSGGGGSGGGGSEVQLVESGGGLVKPGGSLRLSCAASGFTFSNYNMNWVRQAPGKGLEWVSSISSAGTHIYYADSVKGRFTISRDNAKNSLYLQMNSLRAEDTAVYYCARDPHSTGWYKDFDYWGQGTLVTVSSAAAHHHHHH
B12: TPP-943: PDA-6GS-172E1-13-6GS-HSA2-His (bispecific antibody)
chain: EVQLVESGGGLVQPGRSLRLSCAASGFTFDDYALHWVRQAPGKDLEWVSGISWNGGSYGYADSVKGRFTISRDNAKNSLYLQMNSLRAEDTALYYCVREKGPGLTGSTADYYGLDAWGQGTMVTVSSGGGGSGGGGSGGGGSGGGGSGGGGSGGGGSEVQLVESGGGVVQPGGSLRLSCAASGFTFSNYGMHWVRQAPGKGLEWVAVISNDGNTKTYADSVKGRFTISRDNSKNTLYLQMNSLRAEDTAVYYCAQDETTTVTASYYFDYWGQGTLVTVSSGGGGSGGGGSGGGGSGGGGSGGGGSGGGGSEVQLLESGGGLVKPGGSLRLSCAASGFTVSSYTMNWVRQAPGKGLEWVSSISSSGRYIYYADSVKGRFTISRDNAKNSLYLQMNSLRAEDTAVYYCARDPRMVGNPHEFDIWGQGTMVTVSSAAAHHHHHH
B13: TPP-950: PDA2-6GS-172E1-13-6GS-HSA2-His (bispecific antibody)
chain: EVQLVESGGGVVRPGGSLRLSCAASGFTFDDYAMSWVRQAPGKGLEWVSGITWNAGSTGYADSVKGRFTISRDNAKNSLYLQMNSLRAEDTALYYCVRDKYSYAWSYDDFDIWGQGTMVTVSSGGGGSGGGGSGGGGSGGGGSGGGGSGGGGSEVQLVESGGGVVQPGGSLRLSCAASGFTFSNYGMHWVRQAPGKGLEWVAVISNDGNTKTYADSVKGRFTISRDNSKNTLYLQMNSLRAEDTAVYYCAQDETTTVTASYYFDYWGQGTLVTVSSGGGGSGGGGSGGGGSGGGGSGGGGSGGGGSEVQLVESGGGLVKPGGSLRLSCAASGFTFSNYNMNWVRQAPGKGLEWVSSISSAGTHIYYADSVKGRFTISRDNAKNSLYLQMNSLRAEDTAVYYCARDPHSTGWYKDFDYWGQGTLVTVSSAAAHHHHHH

These binders were tested against human CD137 expressed on cells (Jurkat human CD137 NF-kB luciferase reporter cells; human CD8+ T cells) (human, UniProt Q07011 24-255) (assay: cell-based or functional assay).

In order of falling “Jurkat-CD137/CHO-PD-1 Reporter Assay EC50” value:
1. B11  57.4 nM
2. B13  43 nM
3. B12  25.7 nM
4. B8  3.26 nM
5. B3  0.698 nM
6. B1  0.548 nM
7. B7  0.509 nM
8. B2  0.507 nM
9. B6  0.437 nM
10. B5  0.273 nM
11. B4  0.21 nM
12. B9  0.0809 nM
13. B10  0.0323 nM
